According to the supplement of paper PMC12636428:

Each sequence was assayed on Saccharomyces cerevisiae (assay: transcriptional activation domain activity (GFP:mCherry ratio, weighted mean of sorted bins, harmonized to initial dataset scale) (arbitrary fluorescence ratio units); higher = stronger transcriptional activation). Conditions: beta-estradiol 1 µM; induction time 4 h.
In short: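 The listed activation activity is a read-weighted mean of bin median fluorescence, averaged across barcodes and linearly mapped onto the initial dataset scale. Barcoded tiles, fused to an estradiol-inducible synthetic transcription factor, were integrated at URA3 in yeast diploids bearing a GFP reporter. Cells were held 4 hours at 30 °C in SC with 1 uM beta-estradiol, sorted into 8 GFP:mCherry bins, and sequenced, and tiles with fewer than 50 reads were excluded.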

Sequence	transcriptional activation domain activity
GNGKNKHTQRHRGGEKRNLPPSKKQRRKKKSRRIRHRKAQPHPDDEQLQDDKG	17000
GNIHFTLRMALSDPDMTTVRPVLDLLFGLTHFFFVVNTGLFDLIQSCFKIIEA	55100
GNNKPRGNNQRGGARNVRNGAEAGDEEAPREQRDSRSSRGRGEGRGRGRGRGG	31700
GNTGAGGEALVRSVGGSSAVEYPVCVEMDVVSGADGGEKLVWRTACDSRFVDG	44800
GNTVAIFVPFWEYCVLFPSELRIWKRMLRARPFRWHFAPIMTIILRYLLIIFA	45200
GPASGASKPKRRYVRKRKEPEEGAGVDNAEASSMAPKPKRQRKKKAPMAEARN	21900
GPDPFQQLSSAEHPNNHSSDDEHSGSQPLPLDSITIGIPPTLHTIPMILSKDN	62900
GPEYEPGRPSEQEVSLTRMLDKVLRRSDAIDKESLCIIAGQRVWHIRLTIHCL	87900
GPFQSSAQVDGTLDGDLLQELLIAFLSRKKRFVVWKVMKVLFATLLKRMGAHD	55600
GPIFILLNYIFLAMLWLKNYRPHHLHILIRTRPYVYVTSNLPRLRFLFRHFLF	48300
GPLCMDQYRRIFGVTRRPGLSVDSTVLASDLNGRVSILVLLRNRLFRLSLPTG	42400
GPLLFVEIRAGFFPLYYPFSFLCLSGFVFELGHYPSGSFVPGVLLSWSLNFII	53700
GPLRVAQRPRERPGLRAARVPAEGQEAEGPGRLGRARVGGGVPRGRAAARVVV	34200
GPLSDEKSVKVSTFSELIGNDWQSMNFDLENNSREVTLNATSLLNENRLNQDS	48600
GPRDVFGIRSAWKLPLSVAYWLLVCLARRKDFGSLRAVTVGHITWNQYMVGER	58600
GPSAEATPPSTEVKKKRQYRKRQITAEGGEAENGEASSAVPKPKRVRKKKDPP	38300
GPSSSSSLSSSAGMPGTFVLNLGRYGGYYVIHMPVGAQRVLGLVLRRWKTLLF	60500
GPTIRHEMNLFHVYGRRNPHLRLMISLIYVWMRSWGVKEMSPRTLCLLLIRFF	48600
GPTIRHKMNLFHVYGRRNPHLRLMISLIYVWMRSWGVKEMSPGTLCLLLIRFF	59800
GPWFLGAFIPSIPQYGLFYPYGIYFPDTKEWIPILDTFYIALWEHTFFIFPLL	51600
GPYDDIFMGGIYGIKHLYELEDGLTILWHDGIHFSPNRVFRLLIAFLLRVVGT	61900

Sequence	transcriptional activation domain activity
GQAGAPQRASARGSVQLPAQRGAQDGEPAAARRARSRDHARHKPPRHGEAVHA	46200
GQATLRLLKESGRQSHAPIFIVGAFDGNRRQIGEGMGSSIKMAEFRAAEDALR	26300
GQGPLRSSYSMAYDSPVDRAMNTPLQQQEGLKAELPHDFLFQHGTDDTMYNLT	36100
GQHEGLDKLREYHEHVLDRILFALLLRKRQKPVMKLLEEIFTLVLKFSKYSSA	59400
GQLLVALAREAFTLVTWRTTLQGKLEVEIFPPSDLLLNRYMWYVLHLLDHTSL	13100
GQPTDASDGNATEGEVPEKPKKAKRKRVKKDAGEISDGGQPKSKPKKKRKPAK	36100
GQRPFGQVLNFFSCFLFIAFSCCHGPSLVNLIVWAAFFAQSTLFLIYLLRCIC	43800
GQSGLGLEFNLPDFPLISIIFLIFFITLGLLWLVIVYLANFPDAFTLPVWLWH	29500
GQSRGTTSGTIATGLCAGLSRGIAESVELQKRIDFALAGYFRYIRWWRLGFMS	69900
GQTHVHFFPSLSHFYPLFFSFYNVLYPPCLYVRICPISLLLLLWWCFYLTFFC	44100
GQVELFTHHTSLRHIFFRLEKLGYRLVVIQLTDSFVISQPSLYISALLLALRG	35400
GRADARRGRRRRGGGGEGRRGTGDGGRGKTRGGEAGKERRTENRGARGGATRG	39600
GRAESPYNAKYLTGAFSSGSSNGAATATAASFAVFGMGSETVSSGRSPASNNA	44500
GREANDAAQKQRKREGARAARDGNRSAKEGNGRQDAGSRKKAGDGEGGGAERG	20600
GREGKKHRDRDGSSRGSSSKEKRRERSDGKKHREKSEGGKHREGRSREGRRED	44700
GRGKESLLVLSGCSLIQIPVPVWGYHIAFVVCQKYYGSHLGIVHLILPFAFTI	47800
GRGRGGRGAGARGRGGTGEEGEGAGGKQERGQGGRGKERGGEGGGERGQGGRG	28000
GRGVKAGGGPRDREGGERGRERGEEGGEEGARRKEGDSRKEPAGGERREREEG	33400
GRHFLAGVLEGLPYVMPLFAPTVNSYKRLVENFWAPVTVSWGLEHRIASIRLI	32600
GRHPEQHGVRYSLSKDSGATIVDIYLAHLLECLIPVVGRLKSVVSNLGTMRQT	78200
GRILIMLFLWLILRLQIRIVVREVLSRPCCCPFSTITSCAALEQYQRVYDQTA	36700

Sequence	transcriptional activation domain activity
GRIMERSGGWLVLVSHFSYFLNWVLVLFLLFFGGYAYVYYLCISSLLFPFTSF	48800
GRKILNVFALVFFFINLFLFCLFLALTMCRYAMFPRLWGLMLRDPVQSLYLGC	46700
GRKKRAVKKKAEGAGAGAGGGGGGAEAEGKVETKGKKAAKPKSRTKAGAKAKG	< 6570
GRKPAAKPTPRNSSTTARGRKAKSEPESEDDKPLAKKGGAAATKQTKKPAVKK	22300
GRMIRMWKRWSVMAHGMNRLKHYANYLPRLIVLLNKTLPQDVADIIKFNMLVC	39100
GRNAGREDNSNNRNRRGDRRGAPREARAGGNTNGQQQQQQKKGGAPKAAAVDP	35600
GRNKRREKRPEEETTRQRRKGKREEQERRRTTKAGTKAEKRGEERRASGDANE	23100
GRPAKSQAEEPVEAAPEPKKRDRQANVAPEPVIEEAPVVKKGRGRPKKDAVTV	29600
GRPPRSSNESPEAKPAKRARKKAPTEEPEAEVLEDVKPKRGRARVAKKTTADV	22400
GRQSKDGKEGKEGKEGSGERRREEKKEAGRERGGEEGGKEGRGRQRAGASGGE	25500
GRRGSKAVPGEVSEAEANGDAPQTEATPAPESDDAAKPKKKKKSKAARKAKKA	36100
GRRHCNYVQGWLWLSLFSYVCVTYVLSIYISMSFFFWNIAVFLFYFIFVGLLG	40500
GRRRDNGGRRQGGGRRDGGGGGGGGGGRGRGERGGGGGERGERGGGARPKKTQ	34900
GRRRRKGEESRGRKNAEERKGGRKEGPGAGRVEAEGRAEATRTEKGEEGGSGG	34800
GRRRVWTSLLDRGAGGEGGAGYVCGVTIDEGSNISGDHIQSTCILVDEYCELC	74500
GRSESQSANNNGNNARGGKTGGGEAAAGGKTSASRGPRGGRGAKNKGSGGSKG	28700
GRTLSRYEPTNVCVVLILIWLGIYHYFLQVLQVRTHATARKIVLLYGWYTLRI	53400
GRTNVALPIYLFVFGELIDAYENRHIHHMDRIKMVLRMWFFKSIWKSFLQGAG	56300
GRWSYLRTSEMILTFFYKNIMWTLVLFWYQLMCGFTGTMMFDYSYITLYNLVF	46300
GRWSYLRTSEMILTFFYKNIMWTLVLFWYQLMCSFTGTMMFDYSYITLYNLVF	63400
GSAAKAGAGTGAGKAAAGGKTSAAATARGGGGAGAGGGKGAGGASAKAGTGGG	31600

Sequence	transcriptional activation domain activity
GSAFGQSAFGKPATGAFGAPTSAFGSNTTTNNNTTTTSSAFGSSTATSAFGSA	14300
GSDAPASGRAKSKTPKATGAKNGGKGGKGDATEEAEAKREEGGEEKRAAKKSK	20000
GSEDESEGSEDESSEDEEDEEKALDKKMEIQDQTNTNLVNLRKTIYLTIMSSI	43400
GSEDRRKSSRSRDRRERRSRSRDKSHRDRERERDKDRERRHRDHEPRHSHRDR	43300
GSEEDAARAASTSRKRRRASAPRTGDGSDDERESSRAEASAGAGAGAEAKPRR	18600
GSEIVDGDEESSPDGVRIKAESGSSAPVATSSALPPQGGYIGRLNVRKSGKIE	29800
GSELEVKKPSKKRAPKKAAKKEEYEGSEMDEKPAPKRRAPARSTKKAAKKEEA	15800
GSERRERRSERRRSRDRSGERRRSKREEGSSRRPQSPEDEDRQQRRHRRHRHR	16500
GSETTQEQRNIEGTDHGSGGGGGGSGEGGGGNEGGGGGGGGGSGGGGKGGGGE	30000
GSFVGFLFCFVDFGFWILEFSFFFSWMPAGVLSFWMVASQWGKADDIFFSLFF	50600
GSHQGKEAKKEEGKKEEGKDKKEEEEGKKGGKKGGKKGGKGGKGKKTGETEAS	38000
GSIDITRLGLSFTIIGDLWRQVWWAMLGRDEFASLRKNVSYSRQSLQNLLVTM	61800
GSKGAMRARAEERGEGGEGGEREEGREGRGERRGGGRGGEGRERERGGREGRG	25000
GSKIILVVEQCMCVVIWGCKVCFLLIFWKLAWGLRVRLLIKLVASYVVATFLV	65900
GSKMLTEFKKKLRLDYFMLLDLRLWKDMRMCLRKLFISTLIANLSYKRILGLR	61700
GSKTRSTTSRDRSVRNDDKKSTTSGRRSVVSGSKEERRRRSSKKSVPAASETA	34600
GSMGKVKLGVSSISGEKVAIKIIPRFTSTAAAHRPPPPTPSNEPSGSSRRPSS	7050
GSNIQWLVTKWREMGCRKGPIELTKFLTGLLCVNPFSLTPEKGARLLIKLLSI	62200
GSRGGRGGRGGSGGRGGRGGSSGGGGRESSGGRSERGGRRGGSGASGTKRLGK	15100
GSRRPRKDKSHKKKDRSSGDGTEKERKHRDRGDKGDRERAKSRERGEKGKRDR	20500
